± gives the uncertainty stated by the source.
Test: self-splicing fitness, log relative to wild type (ln ratio); higher = more splicing; Tetrahymena group I intron in knt gene, E. coli kanamycin selection, DiMSum; sequences stand for … in CUCUCU…GGAGGGAAAAGUUAUCAGGCAUGCACCUGGUAGCUAGUCUUUAAACCAAUAGAUUGCAUCGGUUUAAAAGGCAAGACCGUCAAAUUGCGGGAAAGGGGUCAACAGCCGUUCAGUACCAAGUCUCAGGGGAAACUUUGAGAUGGCCUUGCAAAGGGUAUGGUAAUAAGCUGACGGACAUGGUCCUAACCACGCAGCCAAGUCCUAAGUCAACAGAUCUUCUGUUGAUAUGGAUGCAGUUCACAGACUAAAUGUCGGUCGGGGAAGAUGUAUUCUUCUCAUAAGAUAUAGUCGGACCUCUCCUUAAUGGGAGCUAGCGGAUGAAGUGAUGCAACACUGGAGCCGCUGGGAACUAAUUUGUAUGCGAAAGUAUAUUGAUUAGUUUUGGAGUACUCGUGGUCG
Method in brief: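 Library with all eight P1ex-region intron nucleotides randomised, intron inside the knt kanamycin-resistance gene on pET-22b(+), in E. coli BL21(DE3). Cells grew overnight at 37°C or 30°C on LB agar with or without 25 μg/mL kanamycin (plus 100 μg/mL carbenicillin, 50 μM IPTG, 0.2% rhamnose), in six replicate transformations. Pooled colonies were amplicon-sequenced on Illumina HiSeq 2500. DiMSum fitness is the error-weighted combination of wild-type-normalised replicate fold changes, kanamycin versus none.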

Sequence | self-splicing fitness (ln) (30 °C) | self-splicing fitness (ln) (37 °C)
AUGCAGCAAUAUUACGGCGU | -4.06 ± 0.24 | -1.76 ± 0.2
AUGCAGCAAUAUUACGGCUG | -2.78 ± 0.15 | -1.68 ± 0.23
AUGCAGCAAUAUUACGGGUA | -1.56 ± 0.13 | -1.12 ± 0.14
AUGCAGCAAUAUUACGUAAC | -2.78 ± 0.2 | -0.366 ± 0.15
AUGCAGCAAUAUUACGUCAG | -2.17 ± 0.092 | -1.12 ± 0.11
AUGCAGCAAUAUUACGUUCU | -0.207 ± 0.058 | 0.262 ± 0.079
AUGGAGCAAUAUUACGAACA | -1.55 ± 0.38 | 
AUGGAGCAAUAUUACGACGA |  | 0.0911 ± 0.24
AUGGAGCAAUAUUACGAUCU |  | -0.713 ± 0.31
AUGGAGCAAUAUUACGCAAA | -2.21 ± 0.36 | 
AUGGAGCAAUAUUACGCAAU | -1.33 ± 0.19 | -1.44 ± 0.24
AUGGAGCAAUAUUACGCAGA | -2.19 ± 0.32 | 
AUGGAGCAAUAUUACGCAGG | -3.69 ± 0.26 | -2.89 ± 0.4
AUGGAGCAAUAUUACGCCCA | -1.95 ± 0.27 | -1.03 ± 0.26
AUGGAGCAAUAUUACGCGAG | -2.22 ± 0.3 | 
AUGGAGCAAUAUUACGGCGG | -3.85 ± 0.37 | -1.82 ± 0.34
AUGGAGCAAUAUUACGGUUA |  | -2.16 ± 0.34
AUGGAGCAAUAUUACGGUUC | -3.93 ± 0.42 | -2.56 ± 0.38
AUGGAGCAAUAUUACGUAAG | -2.69 ± 0.2 | -0.735 ± 0.17
AUGGAGCAAUAUUACGUAUU | -3.29 ± 0.24 | -2.21 ± 0.16
AUGGAGCAAUAUUACGUCAG | -2.47 ± 0.32 | -1.41 ± 0.44
AUGGAGCAAUAUUACGUUCU | -2.64 ± 0.22 | -3.2 ± 0.4
AUGGAGCAAUAUUACGUUUG | -3.38 ± 0.29 | -2.58 ± 0.36
AUGUAGCAAUAUUACGAAAU | -1.92 ± 0.086 | -0.989 ± 0.11
AUGUAGCAAUAUUACGAAUG | -2.89 ± 0.28 | -2.37 ± 0.29

Sequence | self-splicing fitness (ln) (30 °C) | self-splicing fitness (ln) (37 °C)
AUGUAGCAAUAUUACGACCA | -0.549 ± 0.17 | -0.552 ± 0.17
AUGUAGCAAUAUUACGACCC | -0.73 ± 0.26 | -0.517 ± 0.3
AUGUAGCAAUAUUACGACGU | -0.432 ± 0.087 | 0.442 ± 0.095
AUGUAGCAAUAUUACGAGAA | -2.68 ± 0.39 | -1.01 ± 0.22
AUGUAGCAAUAUUACGAUCC | -0.944 ± 0.14 | -0.204 ± 0.15
AUGUAGCAAUAUUACGAUCU | -0.222 ± 0.056 | 0.524 ± 0.073
AUGUAGCAAUAUUACGCACA | -0.084 ± 0.13 | 0.428 ± 0.17
AUGUAGCAAUAUUACGCAGA | -2.74 ± 0.36 | 0.109 ± 0.18
AUGUAGCAAUAUUACGCAUC | -3.66 ± 0.27 | -2.51 ± 0.45
AUGUAGCAAUAUUACGCCAC | -3.49 ± 0.36 | 
AUGUAGCAAUAUUACGCGAG | -1.71 ± 0.13 | -0.706 ± 0.13
AUGUAGCAAUAUUACGCGGA | -2.41 ± 0.3 | -1.09 ± 0.2
AUGUAGCAAUAUUACGCUGG | -3.03 ± 0.14 | -1.92 ± 0.16
AUGUAGCAAUAUUACGGGCC | -2.93 ± 0.35 | -1.86 ± 0.32
AUGUAGCAAUAUUACGGGCU | -2.18 ± 0.16 | -0.877 ± 0.16
AUGUAGCAAUAUUACGUACA | -0.425 ± 0.14 | -0.328 ± 0.16
AUGUAGCAAUAUUACGUCAU | -1.81 ± 0.059 | -0.896 ± 0.069
AUGUAGCAAUAUUACGUGCG | -1.8 ± 0.09 | -0.122 ± 0.097
AUGUAGCAAUAUUACGUGGA | -1.58 ± 0.22 | -3.15 ± 0.24
AUGUAGCAAUAUUACGUGGC | -4.11 ± 0.46 | -2.84 ± 0.25
AUGUAGCAAUAUUACGUGUU | -2.4 ± 0.12 | -1.08 ± 0.14
AUGUAGCAAUAUUACGUUCU | -1.05 ± 0.082 | -0.469 ± 0.094
AUGUAGCAAUAUUACGUUUU | -2.64 ± 0.074 | -1.8 ± 0.1
AUUAAGCAAUAUUACGAGGG |  | -2.96 ± 0.36
AUUAAGCAAUAUUACGAUCC | -0.418 ± 0.11 | -0.106 ± 0.19

Sequence | self-splicing fitness (ln) (30 °C) | self-splicing fitness (ln) (37 °C)
AUUAAGCAAUAUUACGCCCA | -1.11 ± 0.19 | -0.42 ± 0.29
AUUAAGCAAUAUUACGCGGU | -3.93 ± 0.47 | -3.09 ± 0.35
AUUAAGCAAUAUUACGCUGC | -3.87 ± 0.27 | -1.98 ± 0.22
AUUAAGCAAUAUUACGGAAC | -3.44 ± 0.2 | -0.822 ± 0.13
AUUAAGCAAUAUUACGGAGA | -2.53 ± 0.19 | -3.25 ± 0.32
AUUAAGCAAUAUUACGGAUC | -1.85 ± 0.16 | -0.479 ± 0.18
AUUAAGCAAUAUUACGGCUA | -0.106 ± 0.11 | -0.122 ± 0.11
AUUAAGCAAUAUUACGGGUA | -2.2 ± 0.17 | -0.0398 ± 0.12
AUUAAGCAAUAUUACGUCGA | -1 ± 0.1 | -0.855 ± 0.13
AUUAAGCAAUAUUACGUCGU | -1.43 ± 0.094 | -0.383 ± 0.12
AUUAAGCAAUAUUACGUGGG | -3.45 ± 0.17 | -2.44 ± 0.16
AUUAAGCAAUAUUACGUUAA | -2.52 ± 0.15 | -1.35 ± 0.12
AUUAAGCAAUAUUACGUUGA | -2.67 ± 0.24 | -1.95 ± 0.16
AUUCAGCAAUAUUACGAAGC | -3.62 ± 0.27 | -1.32 ± 0.17
AUUCAGCAAUAUUACGACCC | 0.119 ± 0.42 | 
AUUCAGCAAUAUUACGACGU | -0.0483 ± 0.06 | 0.146 ± 0.068
AUUCAGCAAUAUUACGAGAA | -1.51 ± 0.18 | -1.74 ± 0.18
AUUCAGCAAUAUUACGCACG | -0.783 ± 0.16 | -0.413 ± 0.16
AUUCAGCAAUAUUACGCGAG | -0.677 ± 0.065 | -0.126 ± 0.079
AUUCAGCAAUAUUACGCUCU | -0.186 ± 0.094 | 0.683 ± 0.12
AUUCAGCAAUAUUACGCUGU | -2.87 ± 0.21 | -1.09 ± 0.18
AUUCAGCAAUAUUACGCUUG | -0.971 ± 0.083 | -0.265 ± 0.093
AUUCAGCAAUAUUACGGAGA | -1.48 ± 0.12 | -0.618 ± 0.11
AUUCAGCAAUAUUACGGAGC | -2.82 ± 0.23 | -1.71 ± 0.19
AUUCAGCAAUAUUACGGGAG | -0.828 ± 0.051 | -0.443 ± 0.063

Sequence | self-splicing fitness (ln) (30 °C) | self-splicing fitness (ln) (37 °C)
AUUCAGCAAUAUUACGGGCG | -0.695 ± 0.1 | -0.0814 ± 0.12
AUUCAGCAAUAUUACGGUGU | -0.571 ± 0.042 | -0.106 ± 0.055
AUUCAGCAAUAUUACGUAUC | -3.62 ± 0.26 | -1.04 ± 0.16
AUUCAGCAAUAUUACGUCCU | -1.05 ± 0.066 | -0.0115 ± 0.11
AUUCAGCAAUAUUACGUCGA | -0.991 ± 0.085 | -0.503 ± 0.097
AUUCAGCAAUAUUACGUGGG | -2.63 ± 0.11 | -1.87 ± 0.1
AUUCAGCAAUAUUACGUUCC | -1.54 ± 0.14 | -1.5 ± 0.21
AUUCAGCAAUAUUACGUUGC | -2.72 ± 0.23 | -2.52 ± 0.3
AUUGAGCAAUAUUACGAAUC | -2.93 ± 0.4 | 
AUUGAGCAAUAUUACGAGGG | -2.87 ± 0.14 | -2.85 ± 0.29
AUUGAGCAAUAUUACGAUUU | -1.11 ± 0.09 | -0.383 ± 0.11
AUUGAGCAAUAUUACGCACG | -3.07 ± 0.37 | 
AUUGAGCAAUAUUACGCAGA |  | -2.45 ± 0.41
AUUGAGCAAUAUUACGCAUG | -4 ± 0.32 | -0.903 ± 0.26
AUUGAGCAAUAUUACGCAUU | -2.64 ± 0.23 | -1.49 ± 0.18
AUUGAGCAAUAUUACGCUAG |  | -2.2 ± 0.22
AUUGAGCAAUAUUACGCUCU | -3.63 ± 0.24 | -2.27 ± 0.17
AUUGAGCAAUAUUACGGACG | -2.11 ± 0.3 | -1.96 ± 0.32
AUUGAGCAAUAUUACGGCGU | -0.734 ± 0.11 | 0.573 ± 0.17
AUUGAGCAAUAUUACGGGAC | -3.28 ± 0.42 | 
AUUGAGCAAUAUUACGGGGA | -2.32 ± 0.24 | -2.49 ± 0.28
AUUGAGCAAUAUUACGGGGG | -4.39 ± 0.46 | -3.19 ± 0.31
AUUGAGCAAUAUUACGGUCC |  | -1.58 ± 0.22
AUUGAGCAAUAUUACGUAAG | -2.78 ± 0.13 | -1.82 ± 0.13
AUUGAGCAAUAUUACGUAGC | -3.31 ± 0.4 | -2.32 ± 0.31

Reference: the supplement of paper PMC7877785
